How the values were obtained:
[1] = biological target: gelsolin (African green monkey (endogenous in CV1)); assay: co-IP
[2] = biological target: actin (African green monkey (endogenous in CV1)); assay: pull-down

Substance: actin (natural protein)
- actin:gelsolin 35S intensity ratio, PIP5KI-overexpressing cells [1]: 25.7%
- actin:gelsolin 35S intensity ratio, β-gal cells [1]: 39.4%

Substance: profilin (natural protein)
- decrease in profilin bound to actin, PIP5KI-overexpressing against β-gal cells [2]: 51%

Substance: gelsolin (natural protein)
- actin:gelsolin staining intensity ratio, PIP5KI-overexpressing cells [2]: 1.25
- actin:gelsolin staining intensity ratio, β-gal cells [2]: 1.91

— article PMC2198810
